Test results reported in publication PMC4298681 (The Journal of Cell Biology, 2015).

Target: native Arp2/3 complex purified from Acanthamoeba castellanii (Acanthamoeba castellanii, UniProt P53487 1-388)
Experiment: pull-down

- Kd: ~0.213 µM
B1: GST-NIK 340–500 (domain or fragment)
chain: SSIVNVPGESTLRRDFLRLQQENKERSEALRRQQLLQEQQLREQEEYKRQLLAERQKRIEQQKEQRRRLEEQQRREREARRQQEREQRRREQEEKRRLEELERRRKEEEERRRAEEEKRRVEREQEYIRRQLEEEQRHLEILQQQLLQEQAMLLHDHRRPH
